Data published in paper PMC12282130.

Target: PlMYB73-nLUC (Paeonia lactiflora)

## cLUC-PlMYB70 (natural protein)
  Dual-LUC reporter in N. benthamiana leaves: activation of PlTPS1pro (LUC/REN) by PlMYB73 together with PlMYB70, against PlMYB70 alone: 3.45 fold
